We go through 3 substances from patent US7785631B2, “Solid dose delivery vehicle and methods of making same” (Quadrant Drug Delivery Limited, priority 1994, dated 2010).

Type in all cases: physicochemical
Series [1] in a line: Alkaline phosphatase activity after drying and acetone exposure. The settings on record: dried with 50% trehalose versus dried without trehalose; with bovine serum albumin; FIG. 6B. The method, then: (§1) A 0.1 mg/ml horseradish peroxidase solution or a 1 mg/ml alkaline phosphatase/4 mg/ml bovine serum albumin solution was dried in an FTS Systems freeze drier with or without 50% trehalose. The drier was used as a vacuum drier and the mixtures dried without freezing. Four times the volume of solvent was added and the solution was allowed to evaporate to dryness. The contents were redissolved in 5 milliliters of water, and enzyme activity was assessed, in serial dilution, by commercial ‘kit’ reagents.

A short description of series [2]: Horseradish peroxidase activity after drying and acetone exposure. The note with it: dried with 50% trehalose versus dried without trehalose; FIG. 6A. The protocol: as §1
A short description of series [3]: Storage of phycoerythrin dried in trehalose at 100° C. The settings on record: stored at 100° C. for one month. The method, then: A 400 μg/ml phycoerythrin solution was freeze-dried in the FTS drier with or without 20% trehalose.
The nature of series [4]: Exposure of dried phycoerythrin powder to organic solvents, fluorescence. The note with it: freeze-dried powder. The protocol: A 400 μg/ml phycoerythrin solution was freeze-dried in a Labconco freeze-drier with or without 20% trehalose. The dried protein powder was exposed to a number of organic solvents for 72 hrs.

On to alkaline phosphatase, for which the “resistance of enzyme activity to acetone” value in series [1] was “more resistant to acetone”.

For the substance horseradish peroxidase, the “resistance of enzyme activity to acetone” value in series [2] was “more resistant to acetone”.

Take phycoerythrin: the “loss of functional activity on storage” value in series [3] is listed as “no detectable loss of functional activity”. Also, the “fluorescence after solvent exposure” value in series [4] (acetone, 72 hrs) is “remained fluorescent”; in series [4] (acetonitrile, 72 hrs), “remained fluorescent”; in series [4] (chloroform, 72 hrs) it was “remained fluorescent”; in series [4] (dimethylsulfoxide (powder solubilized)), “remained fluorescent”; in series [4] (methanol, 72 hrs), “remained fluorescent”; in series [4] (pyridine, by 72 hrs) it was “lost fluorescence”. In series [4] (pyridine), this substance registered a time remained fluorescent of 24 to 48 h.
